The nature of this data set: yeast display, Sf9 membrane polyspecificity reagent, FACS + sequencing; frameworks hold sequencing errors. The gist of the method: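 Polyreactivity labels are assigned by the sorting gate from which each nanobody was recovered. The gates were low and high (top ~1%), set on anti-HA fluorescence for expression and streptavidin fluorescence for reagent binding. Before sorting, galactose-induced (36–48 hours) yeast display cells were stained for 1 hour at 4 °C with 10% biotinylated, detergent-solubilized Sf9 membrane reagent.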
On to “QVQLVESGGGLVQAGGSLRLICAASGSTFAFYAMGWYRQAPGKERELVAAISRSGGRTYYADSVKGRFTISRDNAKNTVYLQMNSLKPEDTAVYYCAAPSRITTGPHREYDYWGQGTQVTVSS”, for which the “polyreactivity (PSR sort gate)” value is reported as “high polyreactivity”.

Consider “QVQLVESGGGLVQAGGSLRLICAASGSTFAIYAMGWYRQAPGKERELVAAISWRTGSTYYADSVKGRFTISRDNAKNTVYLQMNSLKPEDTAVYYCAVRGRLQYSGGEGNYWGQGTQVTVSS”, for which the “polyreactivity (PSR sort gate)” value is on record as “high polyreactivity”.

Regarding “QVQLVESGGGLVQAGGSLRLICAASGSTFDGNVMGWYRQAPGKERELVADIDSGGSTNYADSVKGRFTISRDNAKNTVYLQMNSLKPEDTAFYYCNAEWDDSFIRWFRYRGNYWGQGTQVTVSS”, the “polyreactivity (PSR sort gate)” value is given as “low polyreactivity”.

In the case of “QVQLVESGGGLVQAGGSLRLICAASGSTFDVNAMGWYRQAPGKEREFVAANSWSGGSTYYADSVKGRFTISRDIAKNTVYLQMNSLKPEDTAVYYCNADYVFKDGLGFRGLAGGDYWGQGTQVTVSS”, the “polyreactivity (PSR sort gate)” value is listed as “low polyreactivity”.

As to “QVQLVESGGGLVQAGGSLRLICAASGSTFDYYAKGWYRQATGKERELVASITWGDGSTYYADSVKGRFTISRDNAKNTVYLQRNSLKPEDTAVYYCNDDDTQLESYAPGHGYDYWGQGTQVTVSS”, the “polyreactivity (PSR sort gate)” value was “low polyreactivity”.

With “QVQLVESGGGLVQAGGSLRLICAASGSTFDYYAMGWYRQAPGKERELVAAISRRGGNTYYADSVKGRFTISRDNAKNTVYLQMNSLKQEDTAVYYCAAQTYKWYDWGHGTQVTVSS”, the “polyreactivity (PSR sort gate)” value was “high polyreactivity”.

Consider “QVQLVESGGGLVQAGGSLRLICAASGSTFFPYAMGWYRQAPGKERELVAGISSDGGTSYADSVKGRFTISRDNAKNTVYLQMNSLKPEDTAVYYCAAYYTHQPAHHYWGQGTQVTVSS”, for which the “polyreactivity (PSR sort gate)” value was “low polyreactivity”.

Turning to “QVQLVESGGGLVQAGGSLRLICAASGSTFIPNAMGWYRQSPGKERELVAAISTGGSTNYADSVKGRFTISRDNAKNTVYLQINCLKPEDTAVYYCNARRGYYNPGRRFYYWGQGTQVTVSS”, the “polyreactivity (PSR sort gate)” value is “low polyreactivity”.

Turning to “QVQLVESGGGLVQAGGSLRLICAASGSTFNSYTMGWYRQAPGKERELVAAISSGGITYYADSEKGRFTISRDNAKNTVYLLMNSLKPEDTAVYYCADRRYRYGYNYWGQGTQVTVSS”, the “polyreactivity (PSR sort gate)” value is reported as “high polyreactivity”.

For the sequence “QVQLVESGGGLVQAGGSLRLICAASGSTFNTYAMGRYRQAPGKERELVAAITWSGGRTYYADSVKGRFTISRDNAKNTVYLQMNSLKPEDTAVYYCAKGKGPTEYDYWGQGTQVTVSS”, the “polyreactivity (PSR sort gate)” value is reported as “high polyreactivity”.

Take “QVQLVESGGGLVQAGGSLRLICAASGSTFSINAMGRYRQAPGKERELVAAITTSVDSTYYADSVKGRFTISRDNAKNTVYLQMNSLIPEDTAVYYCAVAFVQFNQYDYWGQGTQVTVSS”: the “polyreactivity (PSR sort gate)” value is recorded as “low polyreactivity”.

For “QVQLVESGGGLVQAGGSLRLICAASGSTFSSNAMGWYRQAPGKERELVAAISRSGVTTYYADSVKGRFTISRDNAKNTVYLQKHSLKPEDTAVYYCAAQPYSRRYGRYRGFQYKYEYWGQGTQVTVSS”, the “polyreactivity (PSR sort gate)” value is on record as “low polyreactivity”.

Consider “QVQLVESGGGLVQAGGSLRLICAASGSTFTLYAMGWYRQAPGKERELVAAISGIGDSTYYADSVKGRFTISRDNAKNTVYLQMNSLKPEDTAVYYCAADGEYRYDWEYESWGQGTQVTVSS”, for which the “polyreactivity (PSR sort gate)” value was “low polyreactivity”.

Consider “QVQLVESGGGLVQAGGSLRLICAASGSTFVPNAMGGYRQAPGKERELVAAITASTGRTYYADSVKGRFTISRDNAKNTVYLQMNSLKPEDTAVYYCAAYFVYWSDLEHYYPVEYGYWGQGTQVTVSS”, for which the “polyreactivity (PSR sort gate)” value was “high polyreactivity”.

For the sequence “QVQLVESGGGLVQAGGSLRLICAASGSTFVPNAMGWYRQAPGKERELVAAITLSGVSTYYADSVKGRFTISRDNAKNTVYLQMNSLKPEETAVYYCAKDRPGWFHKYDYWGQGTQVTVSS”, the “polyreactivity (PSR sort gate)” value is on record as “low polyreactivity”.

Regarding “QVQLVESGGGLVQAGGSLRLICAASGSTFWRYAMGWYRQAPGKERELVAAITGNGGRTYYADSVKGRFTISRDNAKNTVYLQMNSLKPEDTAVYYCAARYRGGVSVGYWGQGTQVTVSS”, the “polyreactivity (PSR sort gate)” value is “high polyreactivity”.

“QVQLVESGGGLVQAGGSLRLICAASGSTFWYYAMGWYRTAPGKDRELVAAITYGGGSTYYADSVKGRFTISRDNAKNTVYLQMNSLKPEDTAVYYCAAQSYDYWYDYDYWGQGTQVTVSS”: the “polyreactivity (PSR sort gate)” value is listed as “high polyreactivity”.

For the sequence “QVQLVESGGGLVQAGGSLRLICAASGSTFWYYSMGWYRQAPGKERELVAAITRAGSTNYADSVKGRFTISRDNAKNTVYLQMNSLKPEDTAVYYCAADQYHYWYYLGGYDYWGQGTQVTVSS”, the “polyreactivity (PSR sort gate)” value is recorded as “high polyreactivity”.

Regarding “QVQLVESGGGLVQAGGSLRLICAASGSTFYPYDMGWYRQSPGKEWELVATISSGVSTNYADSVKGRFTISRDNAKNTVYLQMNSLKPEDTAVYYCAVDYFIGDDDYWGQGTLVTVSS”, the “polyreactivity (PSR sort gate)” value is listed as “low polyreactivity”.

Turning to “QVQLVESGGGLVQAGGSLRLICAASGSTFYRNVMGWYRQAPGKERELVAAISSGGSTYYADSVKGRFTISRDNAKNTVYLQMNSLKPEDTAVYYCAARKRYSYDYWGQGTQVTVSS”, the “polyreactivity (PSR sort gate)” value is “low polyreactivity”.

Turning to “QVQLVESGGGLVQAGGSLRLICAASGSTITLYAMGWYRQAPGKERELVAAISGIGDSTYYADSVKGRFTISRDNAKNTVYLQMNSLKPEDTAVYYCAADGEYRYDWEYESWGQGTQLTVSS”, the “polyreactivity (PSR sort gate)” value is given as “low polyreactivity”.

As to “QVQLVESGGGLVQAGGSLRLICAASGSTLFTYAMVWYRQAPGKERELVAAITSSGSTYYADSVKGRFTISRDNAKNTVYLQMNSLKQEDTAVYYCAVPGYRYTNYYYWGQGTQVTVSS”, the “polyreactivity (PSR sort gate)” value is reported as “low polyreactivity”.

As for “QVQLVESGGGLVQAGGSLRLICAASGSTLYTYAMGWYRQAPGKERELVATISWSGSSTYYADSVKGRFTISRDNAKNTVYLQMNSLKPEDTAVYYCAAPYHYWYRLDYWGQGTQVTVSS”, the “polyreactivity (PSR sort gate)” value is “high polyreactivity”.

Regarding “QVQLVESGGGLVQAGGSLRLICAASGTFYYYAMGWYRQAHGNERELVAAISTSDTSTYYADSVKGRFTISRDNAKNTVYLQMNSLKPEDTAVYYCAADTYHNFDYWGQGTQVSVSS”, the “polyreactivity (PSR sort gate)” value is reported as “low polyreactivity”.

Regarding “QVQLVESGGGLVQAGGSLRLICAASGTTFPRYAMGWYRKAPGKERELVAAITRSGANTHYADSVKGRFTIPRDNAKNTVYLQMTSLKPEDTAVYYCAARIYWGYGTRYYYWGQGTQVTVSS”, the “polyreactivity (PSR sort gate)” value is reported as “high polyreactivity”.

As for “QVQLVESGGGLVQAGGSLRLICAASGYIFRYYVMGWYRQAPGKERELVAAITGIDGSTYYADSVKGRFTISRDNAKNTVYLQMNSLKPEDTAVYYCAAVIGDSSYTFYYDMDYWGQGTQVTVSS”, the “polyreactivity (PSR sort gate)” value is listed as “low polyreactivity”.

Consider “QVQLVESGGGLVQAGGSLRLICAASGYIFVRNAMGWYRQAPGKERELVAAISGSGGSTYYADSVKGRFTISRDNAKNTVYLQMNSLKPEDTAVYYSAADYATVTWRGIAYDYWGQGTQVTVSS”, for which the “polyreactivity (PSR sort gate)” value is given as “low polyreactivity”.

As to “QVQLVESGGGLVQAGGSLRLICAASGYTFDYNAMGWYRQAPGKEREFVAAIDWSGGNTYYADSVKGRFTISRDNAKNTVYLQMNSLKPEDTAVYYCNTVTEAVTRRYDYWGQGTQVTVSS”, the “polyreactivity (PSR sort gate)” value is “low polyreactivity”.

In the case of “QVQLVESGGGLVQAGGSLRLICAASGYTFRGNAMGRYRPAPGKERELVAAISGSGTRTYYADSVKGRFTISRDNAKNTVYLQMNSLKPEDTAVYYCNAKSLYHYHSADFDYWGQGTQVTVSS”, the “polyreactivity (PSR sort gate)” value is on record as “high polyreactivity”.

For “QVQLVESGGGLVQAGGSLRLICAASGYTFSDYAMGLYRQAPGKERELVAVISQSGGSTYYADSVKGRFTISRDNAKNTVYLQMNSLKPEDTAVYDCNVYPSRRRAVGESERYYWGQGTQVTVSS”, the “polyreactivity (PSR sort gate)” value was “high polyreactivity”.

For the origin of these results see the nanobody polyreactivity screen of Harvey et al. (2022).
